Assay results from paper PMC5425256 (Developmental Cell, 2017).

Biological target: recombinant GST-Pak6 (from pMW-GST-Pak6, E. coli) (human, UniProt Q9NQU5 1-681)
Test: pull-down
Details: both partners purified

recombinant GST-Pak6 (from pMW-GST-Pak6, E. coli), sequence (Q9NQU5 whole entry): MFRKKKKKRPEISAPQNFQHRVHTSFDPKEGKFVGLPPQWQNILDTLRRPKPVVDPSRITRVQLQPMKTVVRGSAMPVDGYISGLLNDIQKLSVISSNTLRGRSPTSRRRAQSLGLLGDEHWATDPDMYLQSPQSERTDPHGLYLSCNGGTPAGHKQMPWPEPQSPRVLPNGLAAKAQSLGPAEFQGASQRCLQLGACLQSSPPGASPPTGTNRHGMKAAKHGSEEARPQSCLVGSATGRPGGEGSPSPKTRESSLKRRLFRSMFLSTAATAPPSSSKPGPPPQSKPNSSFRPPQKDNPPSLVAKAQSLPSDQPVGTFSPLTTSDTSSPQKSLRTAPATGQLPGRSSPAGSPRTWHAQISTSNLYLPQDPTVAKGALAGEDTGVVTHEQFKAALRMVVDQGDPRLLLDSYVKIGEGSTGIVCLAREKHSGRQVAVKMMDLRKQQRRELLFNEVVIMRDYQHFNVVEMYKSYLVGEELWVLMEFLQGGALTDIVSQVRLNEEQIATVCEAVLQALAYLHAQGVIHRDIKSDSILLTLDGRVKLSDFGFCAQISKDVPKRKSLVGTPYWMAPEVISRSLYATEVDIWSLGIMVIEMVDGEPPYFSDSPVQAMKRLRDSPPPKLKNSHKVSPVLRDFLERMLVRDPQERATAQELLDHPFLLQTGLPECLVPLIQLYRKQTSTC

B1: recombinant His-RhoD loaded with GTPγS (natural protein, mouse, UniProt P97348 1-210, looked up)
chain: MNASQVAGEEAPQSGHSVKVVLVGDGGCGKTSLMMVFAKGAFPESYSPTVFERYNATLQMKGKPVHLQIWDTAGQDDYDRLRPLFYPDANVLLLCFDVTNPNSFDNVSNRWYPEVTHFCKGVPIIVVGCKIDLRKDKVLVNNLRKKRLEPVTYHRGHDMARSVGAVAYLECSARLHDNVEAVFQEAAEVALSSRRHNFWRRITQNCCLAT
Does B1 bind?
Result: binds
